According to PMC5042399:

What was measured:
[1] = target: DNA topoisomerase I (TOP1), full-length recombinant (UniProt P11387)
[2] = target: DNA topoisomerase IIα (TOP2A), recombinant (UniProt P11388)
Chain of UniProt P11388 (P11388 whole entry): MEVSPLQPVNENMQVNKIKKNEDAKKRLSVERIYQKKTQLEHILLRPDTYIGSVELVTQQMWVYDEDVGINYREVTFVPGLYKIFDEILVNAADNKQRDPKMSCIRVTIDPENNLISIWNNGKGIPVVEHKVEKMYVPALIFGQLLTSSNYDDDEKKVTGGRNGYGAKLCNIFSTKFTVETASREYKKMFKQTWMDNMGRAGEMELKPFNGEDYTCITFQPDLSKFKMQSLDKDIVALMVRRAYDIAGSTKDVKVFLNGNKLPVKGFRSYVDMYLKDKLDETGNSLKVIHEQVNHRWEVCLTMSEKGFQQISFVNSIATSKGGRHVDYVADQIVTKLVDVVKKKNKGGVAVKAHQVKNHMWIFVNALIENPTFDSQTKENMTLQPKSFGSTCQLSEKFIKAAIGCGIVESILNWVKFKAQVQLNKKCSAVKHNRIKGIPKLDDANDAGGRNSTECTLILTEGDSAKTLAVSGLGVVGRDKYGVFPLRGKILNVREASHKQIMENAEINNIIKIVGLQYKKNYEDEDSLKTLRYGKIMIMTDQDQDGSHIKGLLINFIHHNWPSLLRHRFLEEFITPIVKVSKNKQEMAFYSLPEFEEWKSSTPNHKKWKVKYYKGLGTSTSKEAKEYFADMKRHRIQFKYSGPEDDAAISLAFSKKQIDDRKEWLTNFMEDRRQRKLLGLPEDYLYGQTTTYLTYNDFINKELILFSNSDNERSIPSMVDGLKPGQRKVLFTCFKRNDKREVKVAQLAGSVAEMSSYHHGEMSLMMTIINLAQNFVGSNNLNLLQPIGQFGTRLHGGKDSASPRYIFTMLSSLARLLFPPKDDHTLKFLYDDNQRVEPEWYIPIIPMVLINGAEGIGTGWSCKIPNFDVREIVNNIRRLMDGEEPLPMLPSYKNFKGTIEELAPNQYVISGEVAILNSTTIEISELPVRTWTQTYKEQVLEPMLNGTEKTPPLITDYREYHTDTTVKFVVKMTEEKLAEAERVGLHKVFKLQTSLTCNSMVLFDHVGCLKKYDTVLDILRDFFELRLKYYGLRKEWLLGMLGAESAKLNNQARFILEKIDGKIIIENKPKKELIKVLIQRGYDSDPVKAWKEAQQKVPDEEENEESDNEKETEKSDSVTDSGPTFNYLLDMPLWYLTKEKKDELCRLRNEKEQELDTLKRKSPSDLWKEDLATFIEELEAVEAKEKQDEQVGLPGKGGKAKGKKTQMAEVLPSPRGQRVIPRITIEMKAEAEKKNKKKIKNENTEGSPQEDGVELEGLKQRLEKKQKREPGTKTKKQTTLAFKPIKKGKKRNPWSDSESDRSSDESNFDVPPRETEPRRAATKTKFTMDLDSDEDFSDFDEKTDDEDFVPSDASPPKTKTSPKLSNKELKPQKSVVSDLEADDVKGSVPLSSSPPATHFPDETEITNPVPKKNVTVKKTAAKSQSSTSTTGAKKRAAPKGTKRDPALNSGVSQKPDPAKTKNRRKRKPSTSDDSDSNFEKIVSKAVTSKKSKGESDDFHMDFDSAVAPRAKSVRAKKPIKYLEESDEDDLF

Chain of UniProt P11387 (P11387 whole entry): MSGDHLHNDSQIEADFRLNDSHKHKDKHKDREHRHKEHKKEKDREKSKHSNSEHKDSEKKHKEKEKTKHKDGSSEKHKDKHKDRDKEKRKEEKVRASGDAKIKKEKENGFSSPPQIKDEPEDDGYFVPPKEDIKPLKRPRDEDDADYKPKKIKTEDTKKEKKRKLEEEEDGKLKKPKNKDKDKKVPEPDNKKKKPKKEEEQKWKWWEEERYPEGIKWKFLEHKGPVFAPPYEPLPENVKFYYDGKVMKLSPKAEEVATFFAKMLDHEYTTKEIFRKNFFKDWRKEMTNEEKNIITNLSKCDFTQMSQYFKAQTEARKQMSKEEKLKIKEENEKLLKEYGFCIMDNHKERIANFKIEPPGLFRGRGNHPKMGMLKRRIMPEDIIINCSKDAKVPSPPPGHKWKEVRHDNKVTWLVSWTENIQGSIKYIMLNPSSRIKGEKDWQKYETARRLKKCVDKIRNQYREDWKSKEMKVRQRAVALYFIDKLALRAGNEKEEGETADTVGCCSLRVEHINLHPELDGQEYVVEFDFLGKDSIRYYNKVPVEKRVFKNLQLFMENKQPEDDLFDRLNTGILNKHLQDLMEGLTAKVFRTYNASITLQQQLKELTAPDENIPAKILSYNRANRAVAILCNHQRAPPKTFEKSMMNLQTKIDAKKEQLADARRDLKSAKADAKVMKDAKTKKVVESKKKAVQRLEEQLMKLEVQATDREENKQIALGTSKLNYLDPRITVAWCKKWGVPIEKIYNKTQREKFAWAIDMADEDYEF

stimulation of BLM unwinding of RNA:DNA substrate by a two-fold molar excess of TOP1 (specific activity with against without TOP1) [1]	stimulation of BLM unwinding of dsDNA substrate by 7 nM TOP2A (fold change relative to minus TOP2A) [2]	Substance
1.5 fold		BLM wild-type (WT), recombinant (from UniProt P54132 1-1417) (enzyme)
	3 fold	BLM-Δ1332–1349, recombinant (from UniProt P54132 1-1417) (enzyme)
